Measured values as given in patent publication JP2005168497A (dated 2005).
Changes are numbered by the printed parent chain.

T1: TRAIL-R1-hFc (ヒトTRAIL-R1の細胞外領域とヒトIgG1のFc領域とが融合したタンパク質, ALEXIS社製) (human, UniProt O00220 24-239)
T1 construct: extracellular domain; Bought (ALEXIS); not shown: human IgG1 Fc region
T1 sequence (looked up): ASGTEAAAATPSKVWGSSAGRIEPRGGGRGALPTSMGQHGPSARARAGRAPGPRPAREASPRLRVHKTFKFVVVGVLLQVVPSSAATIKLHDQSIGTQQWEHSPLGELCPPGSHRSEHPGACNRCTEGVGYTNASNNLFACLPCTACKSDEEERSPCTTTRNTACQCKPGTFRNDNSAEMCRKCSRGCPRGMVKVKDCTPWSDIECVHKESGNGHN

B1: L-30-10抗体 (ハイブリドーマL-30-10, FERM BP-7700 / FERM BP-7769 の産生するヒト抗TRAIL-R2モノクローナル抗体) (antibody, V domains shown)
VH: QLQLQESGPGLVKPSETLSLTCTVSGGSISSRSNYWGWIRQPPGKGLEWIGNVYYRGSTYYNSSLKSRVTISVDTSKNQFSLKLSSVTVADTAVYYCARLSVAEFDYWGQGILVTVSS
VL: EIVLTQSPATLSLSPGERATLSCRASQSVSSFLAWYQQKPGQAPRLLIYDASNRATGSPARFSGSGSGTDFTLTISSLEPEDFAVYYCQQRSDWPLTFGPGTKVDIK
B2: E-11-13抗体 (ハイブリドーマE-11-13, FERM BP-7698 / FERM BP-7770 の産生するヒト抗TRAIL-R2モノクローナル抗体) (antibody, V domains shown)
VH: QLQLQESGPGLVKPSETLSLTCTVSGGSIISKSSYWGWIRQPPGKGLEWIGSIYYSGSTFYNPSLKSRVTISVDTSKNQFSLKLSSVTAADTAVYYCARLTVAEFDYWGQGTLVTVSS
VL: B1 VL with S58I, D93N
B3: KMTR1抗体 (ハイブリドーマKMTR1, FERM BP-8038 の産生するヒトモノクローナル抗体) (antibody, V domains shown)
VH: EVQLLESGGGLVQPGRSLRLSCAASGFTFSSYAMSWVRQAPGKGLEWVSAISGSGGSRYYADSVKGRFTISRDNSKNTLYLQMNSLRAEDTAVYYCAKESSGWFGAFDYWGQGTLVTVSS
VL: EIVLTQSPDFQSVTPKEKVTITCRASQSIGSSLHWYQQKPDQSPKLLIKYASQSFSGVPSRFSGSGSGTDFTLTINSLEAEDAAAYYCHQSSSLPITFGQGTRLEIK
notes: Human IgG, kappa light chain; Signal peptide limits are predictions, not N-terminal analysis

How the values were obtained:
[1] = biological target: ヒトTRAIL-R2 (細胞表面の受容体; Colo205, U251, Jurkat, 正常ヒト肝実質細胞) (human, UniProt O14763 56-440); assay: cell-based or functional assay
[2] = biological target: T1, TRAIL-R1-hFc …; assay: ELISA, purified antibody on plate-coated TRAIL-R1-hFc (Example 4)

Binder	Jurkat細胞に対するLD50 (48時間) [1] [µg/mL]	U251細胞に対するLD50 (シスプラチン4μg/ml同時添加, 48時間) [1] [µg/mL]	binding result [2]
B1	0.13	0.17	
B2	0.1	0.3	
B3			binds
